Drawing on paper doi:10.1101/497123 (2018), this text covers koff and Kd for 1 molecule.

Among the targets are m12; m13; m14; m11; m9; m15.
What all share (assay): BLI
Experiment [1] concerns the target T1, full length H7 HA trimer (influenza A virus, subtype H7 (strain …)).
The target in experiment [2] is T1, full length H7 HA trimer. This is another data set of the same source.

B1: CT149 Fab (Fab, V domains shown)
VH: QVQLVQSGAEVKKPGASVKVSCKTSGYSFSTYGVSWVRQAPGQGPEWVGWISAYTGITDYAQKFQGRVTLTTDATTATAFLDLRSLRPDDTATYFCARDKVQGRVEVGSGGRHDYWGQGTLVIVSS
VL: EVVLTQSPGTLALPPGERATLSCRASHRVGSTYIAWYQQKSGQAPRRLIYGASNRATDIPDRFSGSGSGTDFTLTIRRLEPEDSAVYYCQQFSVSPWTFGQGTRVEIK
As for B1, the koff with full length H7 HA trimer [1] turned out to be 0.0031 s⁻¹; with m12 it was 0.003 s⁻¹; in the experiment with m13, 0.0018 s⁻¹; with m14, 0.0029 s⁻¹; in the experiment with m11, 0.0033 s⁻¹; with m9 it was 0.003 s⁻¹. Further, the off-rate constant (koff) with m15 came out at 0.0034 s⁻¹. For the same molecule, the Kd was 3.7 nM with full length H7 HA trimer [2]; 8.2 nM with m12; 2.7 nM with m13; 7.2 nM with m14; 9 nM in the experiment with m11; 7 nM in the experiment with m9. In the experiment with m15, this molecule came in with a Kd of 9.8 nM.
